Laboratory results published in the supplement of paper PMC11865577.

Test system: G-clamp-N3 (biotin conjugate)
Assay: pull-down binding Z-score (relative to library population); higher = stronger binding
Conditions: RNA library: Library-1 (pre-miRNA loops + repeats)
How it was run: (§1)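 Heat-folded RNA library (1 μg, Cy5 or Cy3 end label, phosphate/NaCl/KCl buffer) was captured for 60 min at 25 °C on streptavidin beads displaying 100 pmol of biotin-conjugated small molecule, then washed three times. The bound fraction, eluted in hot SDS, was hybridised to a DNA barcode microarray at 55.5 °C for 20 h. Z-scores for binding were taken against the library mean and standard deviation after beads-only subtraction and trimmed averaging of replicate barcoded probes.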

Sequence	pull-down binding Z-score
AUUUGCCAUCACCUUUACCUUUAAUGGCAAAA [hsa-mir-548av]	-0.985
AUUUUCACUUAAU [hsa-mir-302f]	0.103
CAAAACUCCGUACAUUGCUAUUUUGC [hsa-mir-3064]	-0.316
CAAACCGGACCUGAGCGUUUUG [hsa-mir-375]	-0.122
CAAAGACCAGAACUUAAUGGUCUCUG [hsa-mir-4490]	0.704
CAAAUCGACUGUCCAAUGGAUUUG [hsa-mir-133a-2]	2.07
CAAAUCGCCUCUUCAAUGGAUUUG [hsa-mir-133a-1]	1.23
CAACAGUUCUGUAGCGCAAUUGUG [hsa-mir-203a]	0.267
CAACUACUCAGGAGGCUG [hsa-mir-566]	-0.123
CAAGAGGUGUGAGCCACACACACGCCUGGCCUCCUG [hsa-mir-5699]	1.28
CAAGCACACAGGGCCUGGGACUAGCAUG [hsa-mir-4728]	-0.152
CAAGGAAGAGUCACAGUCUCUUCCUUG [hsa-mir-659]	-0.00418
CAAGGGCUCUACUGUCCUUUCAGGAGAGCCCUUG [hsa-mir-4776-2]	1.19
CAAGGGCUCUCCUGAAAGGACAGUAGAGCCCUUG [hsa-mir-4776-1]	0.88
CAAGUAAAAGGAAUUUUCAUUUUCCAGCCCCUAAUUG [hsa-mir-6739]	-1.23
CAAGUCCGUCUUCCUGAGAGGUUUG [hsa-mir-133b]	-0.401
CAAGUUAUCACUGAGCGACUUC [hsa-mir-4664]	-1.2
CAAUAGUAAAAAGACAACCUGUUG [hsa-mir-3133]	0.427
CAAUCACAUGUAAUUAGGUGUGAUUG [hsa-mir-510]	1.4
CAAUCAUGUAUAACUAAAUUUGAUUG [hsa-mir-514a-2_514a-3]	0.276
CAAUCAUGUAUAAUUAAAUUUGAUUG [hsa-mir-514a-1]	0.528
CAAUCAUGUGUAAUUAGAUAUGAUUG [hsa-mir-514b]	0.559
CAAUGAAGACAUGAAGACCCAAUGUCUUCAUUG [hsa-mir-4529]	-0.114
CAAUUUGAGACCAAU [hsa-mir-1285-2]	-1.39
CACAAAUAUGGCUCUUUGUG [hsa-mir-4474]	-0.738

Sequence	pull-down binding Z-score
CACAAGACUAGGCUUCCCUGUG [hsa-mir-3152]	-0.785
CACAAUAUUUAGGACAACAAUAUU [hsa-mir-1302-6]	-0.807
CACACACAAUCACCAUGUG [hsa-mir-3118-1]	-0.57
CACACACAAUCACCGUGUG [hsa-mir-3118-2_3118-3_3118-4]	0.27
CACACAUACAUAUAUAUAUGUUUG [hsa-mir-3149]	-0.604
CACACGCUUUAUUUGUGCCGUUUG [hsa-mir-758]	-0.691
CACACUGGUGAGGUAACAGGAUCCGGUG [hsa-mir-182]	0.926
CACAGAGUAAGCAUCAAUAGCAUUGGCAAGUUGAACUGAGCUGUC [hsa-mir-6895]	-0.438
CACAGUUCUGG [hsa-mir-761]	0.647
CACCAAAGGGUUAAGGGUUUGCUCUGGAG [hsa-mir-4653]	-0.264
CACCAGCCAGGCAUUGCUCAGCCCGUUUCCCUCUGGGGGAGCAAGGAGUGGUGCUGGGUUUGUC [hsa-mir-593]	-0.156
CACCUCCCGGCCCGGAGCUG [hsa-mir-4734]	0.0744
CACGAGAUACCAGUGUGCACUUGUG [hsa-mir-542]	-0.858
CACGAGAUUGGGUUGUGCAGAGGCUGACACUUG [hsa-mir-5004]	0.93
CACGCAUUUGCUUUACUUGCAAUGAUUAUA [hsa-mir-300]	-0.374
CACGCCGCGCCGCCGGGUCCCUCCUCCCCGGAGAGGCUG [hsa-mir-4674]	0.455
CACUAAUGUGAUUAAUGUUGUUGUG [hsa-mir-3657]	-1.39
CACUACAAGAAGAAUGUAGUUGUG [hsa-mir-19a]	1.3
CACUCAGGCAGUGCCAUGAGC [hsa-mir-6811]	-0.12
CACUCAGUAAAUAUUUGUUGAGUG [hsa-mir-1271]	0.231
CACUCCCGGGAUCCCCAGGGAC [hsa-mir-3176]	-1.23
CACUCCCGUGCUUGUCCGAGGAGGGAGG [hsa-mir-149]	1.29
CACUCUCCCUAAUGGGGCUGAAGACAGCUCAGGGGCAGGGUG [hsa-mir-4472-1]	1.88
CACUGAUUCAGUAAAAUACUCAGUG [hsa-mir-891a]	-0.252
CACUGCAGUUACCCUCCCCUCGGCGUUACUGAGCACUG [hsa-mir-637]	-0.893

Sequence	pull-down binding Z-score
CACUUUCUGCUCUCUGGUGAAAGUG [hsa-mir-371a]	0.951
CAGACAAUAUAGCUGAGUUUGUCUG [hsa-mir-215]	-0.604
CAGACCAUGCCACAUCCGUCUG [hsa-mir-7152]	-0.704
CAGACGGCUUUCUCUCCGAAUGUCUG [hsa-mir-2276]	-0.958
CAGACUCUG [hsa-mir-4326]	1.33
CAGACUGUCUUCCCAAAUAGCCUG [hsa-mir-4772]	-1.42
CAGAGAUGAAAUUGGGACUCCUCU [hsa-mir-7157]	-0.282
CAGAGCUGCAGCUGCUCCACCCUG [hsa-mir-6730]	-0.915
CAGAGGCAUCGGGUCAG [hsa-mir-4746]	1.75
CAGAGGCUGGCUUUCCAAAACUCUG [hsa-mir-1913]	-0.379
CAGAGGGAGGCCAAGAAGACCUCUG [hsa-mir-4793]	2.73
CAGAGGGGCUGGCAGUACUGCUCUG [hsa-mir-4649]	2.75
CAGAGGUCCCACAGCAGGGCUGGAAAGCACACCUGUGGGACUUCUG [hsa-mir-3922]	0.395
CAGAGUGGGCUCACCUCUCGCCCACACUG [hsa-mir-6760]	-0.917
CAGAGUGUGCAUGGCAGGCU [hsa-mir-7156]	-0.349
CAGAGUUCCCUUCUUGUGAGCUCAG [hsa-mir-6733]	-0.936
CAGAUACUUUUUAAAAUUUGUUUGAGUUGAGGCAGAUUAAAUAUCUG [hsa-mir-4742]	0.164
CAGCACUGAGCAGGCAGUGUUGU [hsa-mir-4288]	-0.48
CAGCAGCAGCAGCAGCAGCAGCAGCAGCAGCAGCAGCAGCAGCAGCAG [r(CAG)16]	1.2
CAGCCAUGACCUGACCUUCUGUCUG [hsa-mir-4677]	-0.499
CAGCCCCGUGUGUUGAGGAAGGAAGG [hsa-mir-940]	1.54
CAGCCCGUGGUGGGG [hsa-mir-3619]	0.788
CAGCCCUGCACUGAAC [hsa-mir-614]	-1.84
CAGCCUGGGGCAUCGGUUG [hsa-mir-5572]	-0.0198

Test system: TO-3-N3 (biotin conjugate)
Assay: as above
Conditions: RNA library: Library-2
How it was run: as §1

Sequence	pull-down binding Z-score
AUUUGCCAUCACCUUUACCUUUAAUGGCAAAA [hsa-mir-548av]	0.0312
AUUUUCACUUAAU [hsa-mir-302f]	-0.0598
CAAAACUCCGUACAUUGCUAUUUUGC [hsa-mir-3064]	-0.563
CAAACCGGACCUGAGCGUUUUG [hsa-mir-375]	1.14
CAAAGACCAGAACUUAAUGGUCUCUG [hsa-mir-4490]	-0.471
CAAAUCGACUGUCCAAUGGAUUUG [hsa-mir-133a-2]	-0.529
CAAAUCGCCUCUUCAAUGGAUUUG [hsa-mir-133a-1]	0.308
CAACAGUUCUGUAGCGCAAUUGUG [hsa-mir-203a]	0.0356
CAACUACUCAGGAGGCUG [hsa-mir-566]	-0.196
CAAGAGGUGUGAGCCACACACACGCCUGGCCUCCUG [hsa-mir-5699]	0.771
CAAGCACACAGGGCCUGGGACUAGCAUG [hsa-mir-4728]	0.506
CAAGGAAGAGUCACAGUCUCUUCCUUG [hsa-mir-659]	-0.474
CAAGGGCUCUACUGUCCUUUCAGGAGAGCCCUUG [hsa-mir-4776-2]	-0.245
CAAGGGCUCUCCUGAAAGGACAGUAGAGCCCUUG [hsa-mir-4776-1]	1.31
CAAGUAAAAGGAAUUUUCAUUUUCCAGCCCCUAAUUG [hsa-mir-6739]	-0.655
CAAGUCCGUCUUCCUGAGAGGUUUG [hsa-mir-133b]	-0.412
CAAGUUAUCACUGAGCGACUUC [hsa-mir-4664]	-0.47
CAAUAGUAAAAAGACAACCUGUUG [hsa-mir-3133]	-0.559
